Kd data for 39 molecules are collected here from patent US20260151519A1 (AKTIS ONCOLOGY, published 2026).

The labels stand for the following.
T1: Human Nectin-4 (human, UniProt Q96NY8 32-349, limits assumed)
T1 construct: Protein immobilised on the SPR chip; also called target protein
T1 sequence: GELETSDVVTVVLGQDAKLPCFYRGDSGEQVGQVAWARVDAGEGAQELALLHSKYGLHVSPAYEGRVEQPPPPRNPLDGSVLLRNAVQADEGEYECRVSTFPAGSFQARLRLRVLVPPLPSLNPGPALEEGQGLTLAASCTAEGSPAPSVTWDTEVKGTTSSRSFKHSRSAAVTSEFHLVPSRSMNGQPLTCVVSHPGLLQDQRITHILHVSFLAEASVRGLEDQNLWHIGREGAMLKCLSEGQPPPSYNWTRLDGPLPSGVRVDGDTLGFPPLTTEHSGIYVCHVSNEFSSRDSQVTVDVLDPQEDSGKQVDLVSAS

B1: C178 (designed binder)
chain: {Biotin-PEG4″}-CEYDEEFFTALKRLRGGDICEYIQASFQYLPGLCIEEILDNLGCS-OH
modifications: disulfide 1-34, 20-44
B2: C180 (designed binder)
chain: {Biotin-PEG4″}-CEYDEEFFTALKRLRGDDICYYIQASFQYLPGLCIEEILDNLGCS-OH
modifications: disulfide 1-34, 20-44
B3: C108 (designed binder)
chain: Ac-CEYDEEFFTALKRLRGGDICYYIQASFQYLPGLCIEEILDNLGCS
modifications: disulfide 1-34, 20-44
B4: C135 (designed binder)
chain: {Biotin-PEG4″}-CEYDEEFFTALSRLRGGDICYYIQQAFQYLPGLCIEEILDNLGCS
modifications: disulfide 1-34, 20-44
B5: C156 (designed binder)
chain: {Biotin-PEG4″}-CEYDEEFFTALARLRGSDICLYIQAKFQYLPGLCIEEILDNLGCS-OH
modifications: disulfide 1-34, 20-44
B6: C169 (designed binder)
chain: {Biotin-PEG4″}-CEYDEEFFTALARLRGGDICDYIQAKFQYLPKLCIEEILDNLGCS
modifications: disulfide 1-34, 20-44
B7: C144 (designed binder)
chain: {Biotin-PEG4″}-CEYDGEFFTALARLRGADICEYIQAKFQYYPGLCIEEILDNLGCS-OH
modifications: disulfide 1-34, 20-44
B8: C165 (designed binder)
chain: {Biotin-PEG4″}-CEYDEEFFTALARLRGGDICYYIQAYFQYLPGLCIEEILDNLGCS-OH
modifications: disulfide 1-34, 20-44
B9: C153 (designed binder)
chain: {Biotin-PEG4″}-CEYDEEFFTALARLRGGDICQYIQAKFQYLPALCIEEILDNLGCS
modifications: disulfide 1-34, 20-44
B10: C168 (designed binder)
chain: {Biotin-PEG4″}-CEYDEEFFTALARLRGGDICSYIQAKFQYLPKLCIEEILDNLGCS
modifications: disulfide 1-34, 20-44
B11: C179 (designed binder)
chain: {Biotin-PEG4″}-CEYDEEFFTALKRLRGGDICSYIQASFQYLPGLCIEEILDNLGCS-OH
modifications: disulfide 1-34, 20-44
B12: C157 (designed binder)
chain: {Biotin-PEG4″}-CEYDEEFFTALARLRGGDICDYIQAKFQYLPGLCIAEILDNLGCS-OH
modifications: disulfide 1-34, 20-44
B13: C174 (designed binder)
chain: {Biotin-PEG4″}-CEYDEEFFTALARLRGGDICYYIQAYFQYLPGLCIEEILDNLGCS-OH
modifications: disulfide 1-34, 20-44
B14: C166 (designed binder)
chain: {Biotin-PEG4″}-CEYDEEFFTALARLRGGDICYYIQAKFQYLPKLCIEEILDNLGCS-OH
modifications: disulfide 1-34, 20-44
B15: C120 (designed binder)
chain: Ac-CEYDEEFFTALKRLRGGDICYYIQKAFQYLPGLCIEEILDNLGCS
modifications: disulfide 1-34, 20-44
B16: C127 (designed binder)
chain: {Biotin-PEG4″}-CEYDEEFFTALARLRGGDICYYIQAKFQYLPGLCIEEILDNLGCS
modifications: disulfide 1-34, 20-44
B17: C158 (designed binder)
chain: {Biotin-PEG4″}-CEYDGEFFTALARLRGGDICQYIQAKFQYLPGLCIEEILDNLGCS-OH
modifications: disulfide 1-34, 20-44
B18: C152 (designed binder)
chain: {Biotin-PEG4″}-CEYDEQFFTALARLRGGDICYYILAKFQYLPQLCIEEILDNLGCS
modifications: disulfide 1-34, 20-44
B19: C146 (designed binder)
chain: {Biotin-PEG4″}-CEYDEQFFTALARLRGGDICEYIQAKFQYLPGLCIEEILDNLGCS
modifications: disulfide 1-34, 20-44
B20: C162 (designed binder)
chain: {Biotin-PEG4″}-CEYDEEFFTALAQLRGGDICYYIQAKFQYLPGLCIEEILDNLGCS-OH
modifications: disulfide 1-34, 20-44
B21: C147 (designed binder)
chain: {Biotin-PEG4″}-CEYDEEFFTALARLRGADICDYIQAKFQYLPGLCIEEILDNLGCS
modifications: disulfide 1-34, 20-44
B22: C154 (designed binder)
chain: {Biotin-PEG4″}-CEYDEEFFTALARLRGGDICYYIQAKFAYLPALCIEEILDNLGCS
modifications: disulfide 1-34, 20-44
B23: C167 (designed binder)
chain: {Biotin-PEG4″}-CEYDEEFFTALARLRGGDICEYIQAKFQYLPKLCIEEILDNLGCS-OH
modifications: disulfide 1-34, 20-44
B24: C141 (designed binder)
chain: {Biotin-PEG4″}-CDYDEEFFTALARLRGGDICEYIQAKFQYLPGLCIEEILDNLGCS
modifications: disulfide 1-34, 20-44
B25: C116 (designed binder)
chain: Ac-CEYDEEFFTALKRLRGGDICYYIQAKFQYLPKLCIEEILDNLGCS
modifications: disulfide 1-34, 20-44
B26: C148 (designed binder)
chain: {Biotin-PEG4″}-CEYDEEFFTALARLRGGDICEYIQAKFQYLPGLCIQEILDNLGCS
modifications: disulfide 1-34, 20-44
B27: C111 (designed binder)
chain: {Biotin-PEG4″}-CEYDEEFFTALKRLRGGDICYYIQASFQYLPGLCIEEILDNLGCS
modifications: disulfide 1-34, 20-44
B28: C161 (designed binder)
chain: {Biotin-PEG4″}-CEYDEEFFTALASLRGGDICYYIQAKFQYLPGLCIEEILDNLGCS-OH
modifications: disulfide 1-34, 20-44
B29: C119 (designed binder)
chain: {Biotin-PEG4″}-CEYDEEFFTALKRLRGGDICYYIQAKFQYLPKLCIEEILDNLGCS
modifications: disulfide 1-34, 20-44
B30: C124 (designed binder)
chain: Ac-CEYDEEFFTALARLRGGDICYYIQAKFQYLPGLCIEEILDNLGCS
modifications: disulfide 1-34, 20-44
B31: C142 (designed binder)
chain: {Biotin-PEG4″}-CEYDEEFFTALARLRGGDICYYIQAKFQYLPGECIEEILQNLGCS-OH
modifications: disulfide 1-34, 20-44
B32: C177 (designed binder)
chain: {Biotin-PEG4″}-CEYDEEFFTALKRLRGGDICYYIQASFQYLPGECIEEILDNLGCS-OH
modifications: disulfide 1-34, 20-44
B33: C150 (designed binder)
chain: {Biotin-PEG4″}-CEYDEEFFTALARLRGGDICEYIQAKFQYLEGLCIEEILDNLGCS-OH
modifications: disulfide 1-34, 20-44
B34: C155 (designed binder)
chain: {Biotin-PEG4″}-CEYDEEFFTALARLRGGDICQYIQAKFAYVPGLCIEEILDNLGCS-OH
modifications: disulfide 1-34, 20-44
B35: C115 (designed binder)
chain: {Biotin-PEG4″}-CEYDEQFFTALKALRGGDICYYIQASFNYLPDLCIEEILDNLGCS
modifications: disulfide 1-34, 20-44
B36: C145 (designed binder)
chain: {Biotin-PEG4″}-CEYDEEFFTALARLRGGDICYYILAKFQYLPGECIEEILDNLGCS
modifications: disulfide 1-34, 20-44
B37: C123 (designed binder)
chain: {Biotin-PEG4″}-CEYDEEFFTALKRLRGGDICYYIQKAFQYLPGLCIEEILDNLGCS
modifications: disulfide 1-34, 20-44
B38: C151 (designed binder)
chain: {Biotin-PEG4″}-CEYDEAFFTALARLRGGDICQYIQAKFQYLPGLCIEEILDNLGCS-OH
modifications: disulfide 1-34, 20-44
B39: C140 (designed binder)
chain: {Biotin-PEG4″}-CEYDEEFFTALARLRGADICYYIQAKFQYLPGDCIEEILDNLGCS
modifications: disulfide 1-34, 20-44

Bridges are numbered along the chain shown (N, C = ends). Primed or numbered codes have the meaning given here. Where no end group is shown, it is not given here. The star is where a group is joined. Biotin = O=C1N[C@H]2[C@H](CS[C@H]2CCCCC(=O)*)N1; PEG4″ = 4(ethylene glycol)

The test has as its target T1, Human Nectin-4. Kind of test: Table 2B (DELFIA or SPR).
As for B1, binding was put at a Kd of 1.4 nM.

B2 gave a Kd of 2.7 nM.

B3 gave a Kd of 5.78 nM.

The molecule B4 displayed a Kd of 5.42 nM.

Turning to B5, binding was characterised by a dissociation constant (Kd) of 1.1 nM.

B6 yielded a Kd of 0.74 nM.

Turning to B7, the Kd was found to be 3.7 nM.

In the case of B8, the equilibrium dissociation constant (Kd) came to 4.1 nM.

The molecule B9 returned a Kd of 0.56 nM.

For the molecule B10, binding was put at a Kd of 0.9 nM.

B11: the affinity, expressed as Kd, was 1.8 nM.

With B12, the Kd was 1.1 nM.

As for B13, the Kd stood at 4.1 nM.

Molecule B14 came in with a Kd of 0.75 nM.

For B15, binding was put at a Kd of 2.11 nM.

Regarding B16, the Kd stood at 1.27 nM.

Consider B17, for which binding was characterised by a dissociation constant (Kd) of 1.1 nM.

In turn, B18 registered a Kd of 0.85 nM.

In turn, B19 had a Kd of 0.54 nM.

Consider B20, for which the equilibrium dissociation constant (Kd) amounted to 8.8 nM.

Turning to B21, the Kd is 0.69 nM.

For the molecule B22, the Kd is 0.94 nM.

As for B23, binding was characterised by a dissociation constant (Kd) of 1.2 nM.

In the case of B24, the Kd is 0.64 nM.

Take B25: the Kd is 0.78 nM.

In the case of B26, the Kd came to 0.82 nM.

B27: binding was put at a Kd of 4.32 nM.

Molecule B28 showed a Kd of 7.5 nM.

Regarding B29, the Kd came out at 0.95 nM.

Molecule B30 yielded a dissociation constant Kd of 1.1 nM.

For B31, the affinity, expressed as Kd, was 0.81 nM.

For B32, the Kd amounted to 2 nM.

For the molecule B33, the Kd stood at 1 nM.

B34: the affinity, expressed as Kd, was 1.1 nM.

As to B35, the Kd came out at 6.46 nM.

In turn, B36 gave a Kd of 1.3 nM.

Molecule B37 displayed a Kd of 1.43 nM.

In the case of B38, the Kd worked out at 0.68 nM.

Consider B39, for which the Kd was 1.1 nM.
